For assay [1], the target named is untagged ∆N∆PDZ HTRA1 R274Q used for NMR DOSY (human) (UniProt Q92743). Briefly: NMR DOSY; 100 µM HTRA1 alone, 50 mM potassium phosphate pH 6.7, 10% D2O, 25 °C.
In assay [2] the target is ΔN HTRA1 A252T (human) (UniProt Q92743). Briefly: cross-linking; 0.5 µM HTRA1, 50 mM NaPi, 50 mM NaCl pH 8.0, 37 °C, 0.5% glutaraldehyde 2 min; silver staining or Western blot; single proteins or mixtures.
Assay [3] shares this target. Kind of assay: SEC-MALS; Superdex 200 Increase 10/300, 2x PBS, 56 µl of 10 mg/ml protein (273 µM monomer equivalent; A173T 6.5 mg/ml, 178 µM); single proteins or D174R-S328A + R274Q mixed at a 1:1 ratio.
Assay [4] has the same target. Kind of assay: SEC; analytical SEC, Agilent AdvanceBio SEC 300 Å column, 2x PBS, 10 µl of 10 mg/ml protein (273 µM monomer equivalent; A173T 6.5 mg/ml, 178 µM); single proteins or mixtures. Background: Size exclusion chromatography separates by hydrodynamic size, large species first.
In assay [5] the target is ΔN HTRA1 D174R-S328A (proteolytically inactive corrector variant) (human) (UniProt Q92743). Kind of assay: SEC-MALS; Superdex 200 Increase 10/300, 2x PBS, 56 µl of 10 mg/ml protein (273 µM monomer equivalent; A173T 6.5 mg/ml, 178 µM); single proteins or D174R-S328A + R274Q mixed at a 1:1 ratio.
Assay [6] concerns the target ΔN HTRA1 wild type (human HTRA1 lacking the N-terminal IGFBP7-like fragment) (human) (UniProt Q92743). Briefly: cross-linking; 0.5 µM HTRA1, 50 mM NaPi, 50 mM NaCl pH 8.0, 37 °C, 0.5% glutaraldehyde 2 min; silver staining or Western blot; single proteins or mixtures. Background: In western blotting, separated proteins are transferred to a membrane and probed.
Assay [7] has the same target. Kind of assay: SEC-MALS; Superdex 200 Increase 10/300, 2x PBS, 56 µl of 10 mg/ml protein (273 µM monomer equivalent; A173T 6.5 mg/ml, 178 µM); single proteins or D174R-S328A + R274Q mixed at a 1:1 ratio.
Assay [8] shares this target. Kind of assay: SEC; analytical SEC, Agilent AdvanceBio SEC 300 Å column, 2x PBS, 10 µl of 10 mg/ml protein (273 µM monomer equivalent; A173T 6.5 mg/ml, 178 µM); single proteins or mixtures.
Assay [9] shares this target. Kind of assay: native MS; binding experiments, 5 µM protein with VDAC2 peptide added at molar ratios, 200 mM ammonium acetate pH 6.8.
Assay [10] has as its target VDAC2 peptide (C-terminus of Voltage Dependent Anion-selective Channel isoform 2). Briefly: VDAC2 titration of cleavage rate of peptidic fluorescence-quenched substrate, fitted to the hyperbolic weak-binding equation. As to conditions: substrate 2 µM; HTRA1 wt 30 nM; R274Q 300 nM.

The stoichiometry N is a count of units in the complex or per binding partner. In assay [1], “untagged ∆N∆PDZ HTRA1 R274Q used for NMR DOSY (from UniProt Q92743 158-375) (domain or fragment)” gave a stoichiometry N of 3.

Turning to “ΔN HTRA1 A252T (from UniProt Q92743 158-480) (domain or fragment)”, the stoichiometry N with ΔN HTRA1 A252T (human) [2], in the assay with ΔN HTRA1 A252T (human) [3] and in the assay with ΔN HTRA1 A252T (human) [4] was 3 each time.

Regarding “ΔN HTRA1 D174R-S328A (proteolytically inactive corrector variant) (from UniProt Q92743 158-480) (domain or fragment)”, the stoichiometry N in assay [5] came out at 3.

Take “ΔN HTRA1 wild type (human HTRA1 lacking the N-terminal IGFBP7-like fragment) (from UniProt Q92743 158-480) (domain or fragment)”: the stoichiometry N in assay [6], in [7], in [8] and in [9] was 3 throughout.

As a reminder, the Kd is the equilibrium constant for the complex coming apart. Substance “ΔN HTRA1 wild type (human HTRA1 lacking the N-terminal IGFBP7-like fragment) (from UniProt Q92743) R274Q” displayed a Kd in assay [10] of 12.1 µM.

The values are drawn from publication PMC11252331.
